# Measurements published in the supplement of paper PMC12042874.
# ± gives the uncertainty stated by the source.
# Test: amyloid nucleation score (Sup35N fusion, yeast selection) (log enrichment); library NNK1; higher = more nucleation; inactive = no reads after selection
# Procedure, shortened: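 After 24 hours of induction with 100 μM copper sulfate, psi-negative yeast expressing peptides of 20 random codons fused to Sup35N were grown for 7 days at 30°C on medium lacking adenine and uracil. Input and output plasmid inserts were sequenced with Illumina, and sequences with under 100 input reads were discarded. Scores for nucleation are the DiMSum log enrichment of output over input reads, centred on the mode score of non-aggregating sequences.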
row,Substance,amyloid nucleation score
1,RFISCMFFKYIPLQCFVLGR,0.548 ± 0.39
2,SCRSLDAMDKSWS,1.5 ± 0.52
3,KELFLMPDGEPFMG,0.079 ± 0.61
4,RARGAIYTVT,-0.894 ± 2.4
5,DWSIDILYSVIRSPVNLINS,-1.01 ± 0.52
6,AGKGLAEARTYS,inactive
7,LSLYESLSNPLVRSYRLFCR,0.517 ± 0.45
8,DRFNCKCFVLSKVLCWYGVG,0.851 ± 0.79
9,RYHSPEYTARTLMG,0.264 ± 0.44
10,YHNFNSV,0.164 ± 0.34
11,HSHRYNILQASWKA,0.17 ± 0.38
12,DLSKFGKHFCLLMHYGFPNH,-0.3 ± 0.28
13,NVLVGFI,-0.851 ± 0.56
14,TFMAARQWLGPNYDGGQGLK,-0.2 ± 1
15,SVSEGRVGLYNCG,0.449 ± 0.89
16,GFIVTGNVGTFNALLERVLT,4.04 ± 0.13
17,VVSWDS,-0.015 ± 0.41
18,KFIVVS,0.507 ± 0.62
19,LSYMGGIPGVLHVMPDAFTV,-0.077 ± 0.7
20,GSGNVRL,-1.61 ± 2.4
21,IKLTPLMLRTTELV,-1.32 ± 0.5
22,VDVQGICRHISFNIAGA,-0.035 ± 0.72

row,Substance,amyloid nucleation score
1,TVNARVGVSIFYYWV,0.345 ± 0.93
2,HIESNYRSERTDGWYICRSG,1.11 ± 0.2
3,DVDTRRT,inactive
4,HAFSSCDYSHYVFGMRPFDL,1.51 ± 0.15
5,LRLTALGSSRPIKFEGNVGY,-0.532 ± 0.68
6,NSGGVWSHYFVVVMRYL,0.083 ± 0.46
7,FVSRGLYGVLGTVSFLL,-2.07 ± 1.6
8,MSLDGD,0.868 ± 0.29
9,THLLPFAGIGVCDLVRSAMG,0.668 ± 0.93
10,AFTFGYTFQFYLLASTYMIR,inactive
11,QVLVYNDFRYFEFHRDVFLR,8.45 ± 0.073
12,NNGGASVGFWRMPCHWTRMH,-0.371 ± 0.59
13,YTRMICGSMMGGVMREMRIM,0.739 ± 0.36
14,SAVTDQLMV,0.119 ± 0.45
15,YNIVMMDS,0.108 ± 0.36
16,CYCLNAGVSMADHSVPPRVF,0.912 ± 0.71
17,TCCVKCGCRVQRMMMCLV,-0.003 ± 0.8
18,RKSVFNTLLFVE,0.569 ± 0.33
19,SPEFEEAWDGIKFYCKGANP,-1.09 ± 1.2
20,RTPCLSESGPFSGFQHPGDI,-0.66 ± 1.2
21,AGLKV,-0.479 ± 0.4
22,ALKLARG,-0.019 ± 1.2

row,Substance,amyloid nucleation score
1,YVVWDICKRVLLQWRYPPFS,-0.077 ± 1.7
2,CKKELFKT,0.77 ± 0.66
3,LVFVVMYGSRPSLKWWGITC,0.473 ± 0.79
4,ALLNVQVRGYVGLGR,1.4 ± 0.52
5,WFTAHMCDNHYSTIPNSPRQ,1 ± 0.81
6,SSIVIRTCKWYGTVCIWELL,-0.339 ± 0.39
7,NLKCF,0.905 ± 0.47
8,LRKSHYFTY,-0.429 ± 0.58
9,RLSSPVSI,0.028 ± 0.68
10,NDFLNSFLCPYYIIPDTGRI,-1.04 ± 0.44
11,GEVSRWRMCGLSLMEGRGLQ,0.733 ± 0.44
12,CPVCNTESTCRYPRVGKWDT,3.01 ± 0.17
13,TLCSSGKGRCLVAVT,0.115 ± 1
14,FLPWVLFFSQ,0.816 ± 0.62
15,SIVMYDTNMTFRWSAYGRKN,2.13 ± 0.096
16,SSVCFVNRGSWPYSKVFNGC,-0.019 ± 0.37
17,FVVAVGLIVFD,0.027 ± 1.7
18,FGLIVQTIMFRWHQKGSNFE,-1.05 ± 2.7
19,VKALGHLRPTWLEKGCNHA,0.289 ± 0.25
20,FRLLRSK,0.644 ± 0.56
21,ASNAWCMYYMLATGAMEISL,-0.617 ± 0.86
22,SACLQVWE,0.284 ± 0.4

row,Substance,amyloid nucleation score
1,HIMEIVESFTIETRMIKGCV,0.874 ± 0.53
2,QSPKQILWR,1.11 ± 0.63
3,LCGSGGLMCRQGHYAEMGGC,-0.287 ± 1.1
4,SCLAIRTSYCNEELSIESMQ,-0.8 ± 0.55
5,SVQRAV,-0.489 ± 1.7
6,NDFYVLNASFSSRHSYAIRH,1.1 ± 0.3
7,LDILDLVRTNVIRTKKPFEI,-0.348 ± 0.83
8,CYHQFGV,inactive
9,LRAFR,1.81 ± 0.33
10,STFIVGMRYVPLSKGR,-0.513 ± 1
11,VYRLRLVFKVSYFIIECHKG,-0.851 ± 0.4
12,VVASAFSSL,0.388 ± 0.93
13,SRIGTCGLNSCCLINNIVRD,6.919 ± 0.045
14,TAFVILLDHGGCDSRVIYEG,0.043 ± 0.69
15,HKCDSVKVGGSCNKTAYSRC,0.787 ± 0.59
16,KVIFQVYYI,7.46 ± 0.047
17,SNIKLGFLRSLHIMKTSSDL,-0.113 ± 0.41
18,PSTDLWWLGNTLSIGNRIVY,-0.879 ± 0.69
19,QRARIINRKHV,0.214 ± 0.74
20,FMYSKPVI,-0.314 ± 0.78
21,DYRGTPNSWMIFMTPRGSLI,-0.004 ± 1.1
